This test has as its target T1, Nod1 (human, UniProt Q9Y239 1-953).
T1 construct: also called wild-type Nod1; WT Nod1
T1 sequence: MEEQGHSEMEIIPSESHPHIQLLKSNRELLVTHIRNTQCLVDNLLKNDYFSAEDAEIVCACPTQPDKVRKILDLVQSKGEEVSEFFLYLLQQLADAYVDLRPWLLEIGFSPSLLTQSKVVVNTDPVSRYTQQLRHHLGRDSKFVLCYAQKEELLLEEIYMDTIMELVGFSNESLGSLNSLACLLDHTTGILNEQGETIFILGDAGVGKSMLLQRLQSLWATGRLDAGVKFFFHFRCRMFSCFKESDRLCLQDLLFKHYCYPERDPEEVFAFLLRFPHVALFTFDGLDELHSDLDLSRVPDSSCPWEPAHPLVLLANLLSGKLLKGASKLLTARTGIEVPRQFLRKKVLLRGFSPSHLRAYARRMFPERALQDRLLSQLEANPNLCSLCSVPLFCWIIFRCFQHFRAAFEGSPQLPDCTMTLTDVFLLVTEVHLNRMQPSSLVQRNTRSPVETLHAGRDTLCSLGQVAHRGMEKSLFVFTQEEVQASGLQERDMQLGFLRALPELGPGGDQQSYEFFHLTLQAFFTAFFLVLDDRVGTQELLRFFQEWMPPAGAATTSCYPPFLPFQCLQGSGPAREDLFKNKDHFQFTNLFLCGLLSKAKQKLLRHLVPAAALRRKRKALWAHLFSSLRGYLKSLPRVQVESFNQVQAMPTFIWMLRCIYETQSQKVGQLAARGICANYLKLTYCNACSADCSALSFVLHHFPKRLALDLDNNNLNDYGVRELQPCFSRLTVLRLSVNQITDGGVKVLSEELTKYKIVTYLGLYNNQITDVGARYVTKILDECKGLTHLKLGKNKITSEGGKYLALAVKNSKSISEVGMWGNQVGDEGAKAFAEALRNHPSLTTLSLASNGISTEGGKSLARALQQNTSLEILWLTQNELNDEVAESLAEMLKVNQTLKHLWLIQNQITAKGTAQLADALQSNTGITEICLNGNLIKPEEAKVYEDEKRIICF
Briefly: co-immunoprecipitation, tagged proteins transiently expressed in 293T cells. An excerpt: The CARD and its structurally related death effector domain (DED) are peptide motifs that mediate interactions between apoptosis-regulatory proteins (Science 281:1301 (1998); Hofmann et al., Trends Biochem. Sci. 22:155 (1998)).

B1: A20 (other, UniProt P21580 1-790, looked up)
chain: MAEQVLPQALYLSNMRKAVKIRERTPEDIFKPTNGIIHHFKTMHRYTLEMFRTCQFCPQFREIIHKALIDRNIQATLESQKKLNWCREVRKLVALKTNGDGNCLMHATSQYMWGVQDTDLVLRKALFSTLKETDTRNFKFRWQLESLKSQEFVETGLCYDTRNWNDEWDNLIKMASTDTPMARSGLQYNSLEEIHIFVLCNILRRPIIVISDKMLRSLESGSNFAPLKVGGIYLPLHWPAQECYRYPIVLGYDSHHFVPLVTLKDSGPEIRAVPLVNRDRGRFEDLKVHFLTDPENEMKEKLLKEYLMVIEIPVQGWDHGTTHLINAAKLDEANLPKEINLVDDYFELVQHEYKKWQENSEQGRREGHAQNPMEPSVPQLSLMDVKCETPNCPFFMSVNTQPLCHECSERRQKNQNKLPKLNSKPGPEGLPGMALGASRGEAYEPLAWNPEESTGGPHSAPPTAPSPFLFSETTAMKCRSPGCPFTLNVQHNGFCERCHNARQLHASHAPDHTRHLDPGKCQACLQDVTRTFNGICSTCFKRTTAEASSSLSTSLPPSCHQRSKSDPSRLVRSPSPHSCHRAGNDAPAGCLSQAARTPGDRTGTSKCRKAGCVYFGTPENKGFCTLCFIEYRENKHFAAASGKVSPTASRFQNTIPCLGRECGTLGSTMFEGYCQKCFIEAQNQRFHEAKRTEEQLRSSQRRDVPRTTQSTSRPKCARASCKNILACRSEELCMECQHPNQRMGPGAHRGEPAPEDPPKQRCRAPACDHFGNAKCNGYCNECFQFKQMYG
In the case of B1, the binding result is given as “no binding”.

B2: DEDD (other, UniProt O75618 1-318, looked up)
chain: MAGLKRRASQVWPEEHGEQEHGLYSLHRMFDIVGTHLTHRDVRVLSFLFVDVIDDHERGLIRNGRDFLLALERQGRCDESNFRQVLQLLRIITRHDLLPYVTLKRRRAVCPDLVDKYLEETSIRYVTPRALSDPEPRPPQPSKTVPPHYPVVCCPTSGPQMCSKRPARGRATLGSQRKRRKSVTPDPKEKQTCDIRLRVRAEYCQHETALQGNVFSNKQDPLERQFERFNQANTILKSRDLGSIICDIKFSELTYLDAFWRDYINGSLLEALKGVFITDSLKQAVGHEAIKLLVNVDEEDYELGRQKLLRNLMLQALP
On to B2, for which the binding result is “no binding”.

B3: IKKa (enzyme, UniProt O15111 1-745, looked up)
chain: MERPPGLRPGAGGPWEMRERLGTGGFGNVCLYQHRELDLKIAIKSCRLELSTKNRERWCHEIQIMKKLNHANVVKACDVPEELNILIHDVPLLAMEYCSGGDLRKLLNKPENCCGLKESQILSLLSDIGSGIRYLHENKIIHRDLKPENIVLQDVGGKIIHKIIDLGYAKDVDQGSLCTSFVGTLQYLAPELFENKPYTATVDYWSFGTMVFECIAGYRPFLHHLQPFTWHEKIKKKDPKCIFACEEMSGEVRFSSHLPQPNSLCSLVVEPMENWLQLMLNWDPQQRGGPVDLTLKQPRCFVLMDHILNLKIVHILNMTSAKIISFLLPPDESLHSLQSRIERETGINTGSQELLSETGISLDPRKPASQCVLDGVRGCDSYMVYLFDKSKTVYEGPFASRSLSDCVNYIVQDSKIQLPIIQLRKVWAEAVHYVSGLKEDYSRLFQGQRAAMLSLLRYNANLTKMKNTLISASQQLKAKLEFFHKSIQLDLERYSEQMTYGISSEKMLKAWKEMEEKAIHYAEVGVIGYLEDQIMSLHAEIMELQKSPYGRRQGDLMESLEQRAIDLYKQLKHRPSDHSYSDSTEMVKIIVHTVQSQDRVLKELFGHLSKLLGCKQKIIDLLPKVEVALSNIKEADNTVMFMQGKRQKEIWHLLKIACTQSSARSLVGSSLEGAVTPQTSAWLPPTSAEHDHSLSCVVTPQDGETSAQMIEENLNCLGHLSTIIHEANEEQGNSMMNLDWSWLTE
notes: also called IKKα
For B3, the binding result is on record as “no binding”.

B4: IKKb (enzyme, UniProt O14920 1-756, looked up)
chain: MSWSPSLTTQTCGAWEMKERLGTGGFGNVIRWHNQETGEQIAIKQCRQELSPRNRERWCLEIQIMRRLTHPNVVAARDVPEGMQNLAPNDLPLLAMEYCQGGDLRKYLNQFENCCGLREGAILTLLSDIASALRYLHENRIIHRDLKPENIVLQQGEQRLIHKIIDLGYAKELDQGSLCTSFVGTLQYLAPELLEQQKYTVTVDYWSFGTLAFECITGFRPFLPNWQPVQWHSKVRQKSEVDIVVSEDLNGTVKFSSSLPYPNNLNSVLAERLEKWLQLMLMWHPRQRGTDPTYGPNGCFKALDDILNLKLVHILNMVTGTIHTYPVTEDESLQSLKARIQQDTGIPEEDQELLQEAGLALIPDKPATQCISDGKLNEGHTLDMDLVFLFDNSKITYETQISPRPQPESVSCILQEPKRNLAFFQLRKVWGQVWHSIQTLKEDCNRLQQGQRAAMMNLLRNNSCLSKMKNSMASMSQQLKAKLDFFKTSIQIDLEKYSEQTEFGITSDKLLLAWREMEQAVELCGRENEVKLLVERMMALQTDIVDLQRSPMGRKQGGTLDDLEEQARELYRRLREKPRDQRTEGDSQEMVRLLLQAIQSFEKKVRVIYTQLSKTVVCKQKALELLPKVEEVVSLMNEDEKTVVRLQEKRQKELWNLLKIACSKVRGPVSGSPDSMNASRLSQPGQLMSQPSTASNSLPEPAKKSEELVAEAHNLCTLLENAIQDTVREQDQSFTALDWSWLQTEEEEHSCLEQAS
notes: also called IKKβ
Regarding B4, the binding result was “no binding”.

B5: Caspase-7 (enzyme, UniProt P55210 1-303, looked up)
chain: MADDQGCIEEQGVEDSANEDSVDAKPDRSSFVPSLFSKKKKNVTMRSIKTTRDRVPTYQYNMNFEKLGKCIIINNKNFDKVTGMGVRNGTDKDAEALFKCFRSLGFDVIVYNDCSCAKMQDLLKKASEEDHTNAACFACILLSHGEENVIYGKDGVTPIKDLTAHFRGDRCKTLLEKPKLFFIQACRGTELDDGIQADSGPINDTDANPRYKIPVEADFLFAYSTVPGYYSWRSPGRGSWFVQALCSILEEHGKDLEIMQILTRVNDRVARHFESQSDDPHFHEKKQIPCVVSMLTKELYFSQ
Consider B5, for which the binding result is given as “no binding”.

B6: Ced-4 (other, UniProt P30429 1-549, looked up)
chain: MLCEIECRALSTAHTRLIHDFEPRDALTYLEGKNIFTEDHSELISKMSTRLERIANFLRIYRRQASELGPLIDFFNYNNQSHLADFLEDYIDFAINEPDLLRPVVIAPQFSRQMLDRKLLLGNVPKQMTCYIREYHVDRVIKKLDEMCDLDSFFLFLHGRAGSGKSVIASQALSKSDQLIGINYDSIVWLKDSGTAPKSTFDLFTDILLMLKSEDDLLNFPSVEHVTSVVLKRMICNALIDRPNTLFVFDDVVQEETIRWAQELRLRCLVTTRDVEISNAASQTCEFIEVTSLEIDECYDFLEAYGMPMPVGEKEEDVLNKTIELSSGNPATLMMFFKSCEPKTFEKMAQLNNKLESRGLVGVECITPYSYKSLAMALQRCVEVLSDEDRSALAFAVVMPPGVDIPVKLWSCVIPVDICSNEEEQLDDEVADRLKRLSKRGALLSGKRMPVLTFKIDHIIHMFLKHVVDAQTIANGISILEQRLLEIGNNNVSVPERHIPSHFQKFRRSSASEMYPKTTEETVIRPEDFPKFMQLHQKFYDSLKNFACC
Turning to B6, the binding result is on record as “no binding”.

B7: NIK (enzyme, UniProt Q99558 1-947, looked up)
chain: MAVMEMACPGAPGSAVGQQKELPKAKEKTPPLGKKQSSVYKLEAVEKSPVFCGKWEILNDVITKGTAKEGSEAGPAAISIIAQAECENSQEFSPTFSERIFIAGSKQYSQSESLDQIPNNVAHATEGKMARVCWKGKRRSKARKKRKKKSSKSLAHAGVALAKPLPRTPEQESCTIPVQEDESPLGAPYVRNTPQFTKPLKEPGLGQLCFKQLGEGLRPALPRSELHKLISPLQCLNHVWKLHHPQDGGPLPLPTHPFPYSRLPHPFPFHPLQPWKPHPLESFLGKLACVDSQKPLPDPHLSKLACVDSPKPLPGPHLEPSCLSRGAHEKFSVEEYLVHALQGSVSSGQAHSLTSLAKTWAARGSRSREPSPKTEDNEGVLLTEKLKPVDYEYREEVHWATHQLRLGRGSFGEVHRMEDKQTGFQCAVKKVRLEVFRAEELMACAGLTSPRIVPLYGAVREGPWVNIFMELLEGGSLGQLVKEQGCLPEDRALYYLGQALEGLEYLHSRRILHGDVKADNVLLSSDGSHAALCDFGHAVCLQPDGLGKSLLTGDYIPGTETHMAPEVVLGRSCDAKVDVWSSCCMMLHMLNGCHPWTQFFRGPLCLKIASEPPPVREIPPSCAPLTAQAIQEGLRKEPIHRVSAAELGGKVNRALQQVGGLKSPWRGEYKEPRHPPPNQANYHQTLHAQPRELSPRAPGPRPAEETTGRAPKLQPPLPPEPPEPNKSPPLTLSKEESGMWEPLPLSSLEPAPARNPSSPERKATVPEQELQQLEIELFLNSLSQPFSLEEQEQILSCLSIDSLSLSDDSEKNPSKASQSSRDTLSSGVHSWSSQAEARSSSWNMVLARGRPTDTPSYFNGVKVQIQSLNGEHLHIREFHRVKVGDIATGISSQIPAAAFSLVTKDGQPVRYDMEVPDSGIDLQCTLAPDGSFAWSWRVKHGQLENRP
notes: also called N1K
Turning to B7, the binding result is reported as “no binding”.

B8: FADD (other, UniProt Q13158 1-208, looked up)
chain: MDPFLVLLHSVSSSLSSSELTELKFLCLGRVGKRKLERVQSGLDLFSMLLEQNDLEPGHTELLRELLASLRRHDLLRRVDDFEAGAAAGAAPGEEDLCAAFNVICDNVGKDWRRLARQLKVSDTKIDSIEDRYPRNLTERVRESLRIWKNTEKENATVAHLVGALRSCQMNLVADLVQEVQQARDLQNRSGAMSPMSWNSDASTSEAS
Regarding B8, the binding result is listed as “no binding”.

B9: Caspase-3 (enzyme, UniProt P42574 1-277, looked up)
chain: MENTENSVDSKSIKNLEPKIIHGSESMDSGISLDNSYKMDYPEMGLCIIINNKNFHKSTGMTSRSGTDVDAANLRETFRNLKYEVRNKNDLTREEIVELMRDVSKEDHSKRSSFVCVLLSHGEEGIIFGTNGPVDLKKITNFFRGDRCRSLTGKPKLFIIQACRGTELDCGIETDSGVDDDMACHKIPVEADFLYAYSTAPGYYSWRNSKDGSWFIQSLCAMLKQYADKLEFMHILTRVNRKVATEFESFSFDATFHAKKQIPCIVSMLTKELYFYH
As for B9, the binding result is reported as “no binding”.

Source of the values: patent publication US20030049732A1 (Human Genome Sciences, published 2003).
